Measured values taken from US11939390B2, “Methods of treating multiple myeloma” (Sanofi-Aventis U.S. LLC, priority 2019, dated 2024).

What was measured:
[1] = test system: anti-isatuximab antibodies; assay: Immunogenicity: antidrug antibodies (ADA); design: species or system human; conditions: in vivo
Procedure: The presence of antidrug antibodies (ADA, i.e., anti-isatuximab antibodies) in patients in the IPd arm were assessed throughout the study.

[2] = Population pharmacokinetics of isatuximab; format: in vivo, human; conditions: patients with renal impairment vs those without
Text: Blood samples were collected from all patients treated with […] to assess the pharmacokinetic profile of isatuximab using population pharmacokinetic approach.

isatuximab: anti-CD38 antibody, CAS Registry Number 1461640-62-9; heavy chain SEQ ID NO: 10, light chain SEQ ID NO: 11
anti-drug antibodies (ADA) [1]: No positive ADA
Pharmacokinetic parameters [2]: comparable between patients with renal impairment and those without
